Laboratory results published in the supplement of paper PMC9170038.

System: MS2 coat protein
Experiment: apparent KD of MS2 coat protein; designed switch direction (-1 OFF switch, 1 ON switch): -1; higher = weaker reporter binding
Method in brief: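 Apparent KD, taken as the median over clusters for each design, was obtained by curve-fitting normalised cluster fluorescence. Designed RNA switches had been transcribed on Illumina chips by stalled E. coli RNA polymerase and titrated with SNAP-549-labelled MS2 coat protein, doubling from 0.7 or 1.5 nM to 3 µM.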

[1] = Eterna round: R95, input ligand: microRNA oligo, concentration not stated
[2] = Eterna round: R95, input ligand: FMN 200 uM
[3] = Eterna round: R95, input ligand: none
[4] = input ligand: microRNA oligo, concentration not stated

Sequence: CGAGCUUUUUGCUCGUCUUACAUGAGGAUCACCCAUGUCGAGCGAGCGAGCGAGCGAAAGUUUGUUUGUUUGUUUGA [Mod of sellena 3] (Eterna round: R97, puzzle: Sensor, turn-off variant 1)
- apparent KD of MS2 coat protein (input ligand: FMN 200 uM): 21.4 nM
- apparent KD of MS2 coat protein (input ligand: none): 20.4 nM

Sequence: CCAGGCAGGCUAUUUGCUCACAUGAGGAUCACCCAUGUUGUAUCCCUUGAAUCUAGAUGGUUCAGGCUUAAUUAUUU [Eternabot (L2) Solution 28] (Eterna round: R97, puzzle: Sensor, turn-off variant 1)
- apparent KD of MS2 coat protein (input ligand: FMN 200 uM): 47.5 nM
- apparent KD of MS2 coat protein (input ligand: none): 66 nM

Sequence: GUAGAGUAAGGAUAUGAUGAAUAGGAUAGAAUGGUUAGAAAUCAGAAGGUACAUGAGGAUCACCCAUGUAAUGU [Excluse me!!!! 13 - Jieux - Exclusion 4] (puzzle: Exclusion 4)
- apparent KD of MS2 coat protein [1]: 21.4 nM

Sequence: AAUUUACAUGAGGAUCACCCAUGUGAGGAUAUAUGCAAAUAAUUUUUAUUAAUAAAGCAUAGAAGGCGCGUGAU [JR_Exc1_Sub042] (Eterna round: R97, puzzle: Exclusion 1)
- apparent KD of MS2 coat protein (input ligand: FMN 200 uM): 188 nM
- apparent KD of MS2 coat protein (input ligand: none): 73 nM

Sequence: CAUACAGUAGUUAGGAUAUUGCAACGCACACGGAACGAGAAGGGACAUGAGGAUCACCCAUGUAGACUGUAAAG [EX-4 Malc #7] (puzzle: Brourd's mod of Exclusion 4)
- apparent KD of MS2 coat protein [2]: 20.1 nM
- apparent KD of MS2 coat protein [1]: 18.5 nM
- apparent KD of MS2 coat protein [3]: 24.7 nM

Sequence: GUAGCCCGAGGAUAUACAUGAGGAUCACCCAUGUAUCGUUCGAGAAGACUCGGCCCGUGUAGAAGGCGGUAUCC [Eternabot (L1) Solution 22] (Eterna round: R97, puzzle: Exclusion 3)
- apparent KD of MS2 coat protein (input ligand: FMN 200 uM): 25.3 nM
- apparent KD of MS2 coat protein (input ligand: none): 23.1 nM

Sequence: AAGUAUAGAGGAUAUAGUGAGUACUACAUGAGGAUCACCCAUGUUCUUCACAGCGUAUUUCUAGAAGGCUGUUAAA [EX-5 Malc#19] (puzzle: Exclusion 5)
- apparent KD of MS2 coat protein [2]: 29.6 nM
- apparent KD of MS2 coat protein [1]: 26.5 nM
- apparent KD of MS2 coat protein [3]: 26.4 nM

Sequence: CCUCUGUGAGGAUAUGGGCCCGGGCCCGUGAGGGCCCGGGCCCAGAAGGCACAUGAGGAUCACCCAUGUGGCUU [Energy optimization 2] (Eterna round: R97, puzzle: Exclusion 4)
- apparent KD of MS2 coat protein (input ligand: FMN 200 uM): 94.4 nM
- apparent KD of MS2 coat protein (input ligand: none): 20 nM

Sequence: CAGUACUGAGGAUAUACAUGAGGAUCACCCAUGUGAGAGAUACUAGUGAGGUCGAUUAGUAGAAGGCGGUACUG [Mat X3R4 m5] (Eterna round: R97, puzzle: Exclusion 3)
- apparent KD of MS2 coat protein (input ligand: FMN 200 uM): 306 nM
- apparent KD of MS2 coat protein (input ligand: none): 40.8 nM

Sequence: CUUUUGUGAGGAUAUCAGUAGUAGAACAAUAGUACUACUACUGAGAAGGCACAUGAGGAUCACCCAUGUUCCUU [Fiskers Ex 4 Super stable 44 mod 6] (puzzle: Exclusion 4)
- apparent KD of MS2 coat protein [1]: 15.4 nM

Sequence: CCGUCACAUGAGGAUCACCCAUGUCAGGAUAUCUAUCAUAGCAUCGAAAGAUGCGGGUAGAGAAGGGACUAUCC [ChP Ext 10-04-2015 #7] (puzzle: Exclusion 1)
- apparent KD of MS2 coat protein [1]: 20.3 nM

Sequence: GGAACGGCGAACAAGGCCCACAUGAGGAUCACCCAUGUGGCUGGGUGAUCUCGCUCGUCUUAUAUAUGGCUGGACCG [salish99-s2-off-006] (Eterna round: R96, puzzle: Sensor v2, turn-off variant)
- apparent KD of MS2 coat protein (input ligand: FMN 200 uM): 146 nM
- apparent KD of MS2 coat protein [4]: 23.8 nM
- apparent KD of MS2 coat protein (input ligand: none): 104 nM

Sequence: GCUCUGUGAGGAUAUAUAACGCAUUGGAUAGUGAAACUUAGACAUGAGGAUCACCCAUGUAGAAGGUACGGUAG [Eternabot (L2) Solution 76] (Eterna round: R97, puzzle: Exclusion 2)
- apparent KD of MS2 coat protein (input ligand: FMN 200 uM): 77.8 nM
- apparent KD of MS2 coat protein (input ligand: none): 99 nM

Sequence: AUUUAAUUUAAUAAGAUCACAUGAGGAUCACCCAUGUAUAUAUAGGAUAUCAGCUCGUUUAGAGCUGAGAAGGAUAUAUACUAU [ExNG3/7-B2] (Eterna round: R96, puzzle: Exclusion NG 3)
- apparent KD of MS2 coat protein (input ligand: FMN 200 uM): 190 nM
- apparent KD of MS2 coat protein [4]: 237 nM
- apparent KD of MS2 coat protein (input ligand: none): 278 nM

Sequence: GUCGAUGUCAAAGGAUAUCAGCACGAUUAGUGCUGAGAAGGUUGAACAUGAGGAUCACCCAUGUAGAUCAUUAACGACUUAAUU [ENG1/10-A2] (Eterna round: R96, puzzle: Exclusion NG 1)
- apparent KD of MS2 coat protein (input ligand: FMN 200 uM): 28.4 nM
- apparent KD of MS2 coat protein [4]: 14.1 nM
- apparent KD of MS2 coat protein (input ligand: none): 18 nM

Sequence: AAAAGACAUGAGGAUCACCCAUGUGAGGAUAUUGGAAGAAAGAAAAGAAAGAAAGAAACGAGAAGGCACAAAAG [Exclusion] (puzzle: Exclusion 1)
- apparent KD of MS2 coat protein [2]: 68.2 nM
- apparent KD of MS2 coat protein [1]: 60.9 nM
- apparent KD of MS2 coat protein [3]: 51.9 nM

Sequence: AGUCCUAACACGAAAGUGUUAGUACAAUAAGCUUGUGAAACAUGAGGAUCACCCAUGUCCUCAUAAGCUCGUCUUAU [salish99_TOv2_r3_015] (Eterna round: R96, puzzle: Sensor v3, turn-off variant 2)
- apparent KD of MS2 coat protein (input ligand: FMN 200 uM): 15.3 nM
- apparent KD of MS2 coat protein [4]: 449 nM
- apparent KD of MS2 coat protein (input ligand: none): 17.7 nM

Sequence: GUCAUGUUAGGAUAUCUAACAUGUGACUUCGGUCACUGUCCAGAGAAGGAACAUGAGGAUCACCCAUGUUGGAC [Ex4-3: 56] (Eterna round: R96, puzzle: Exclusion 4)
- apparent KD of MS2 coat protein (input ligand: FMN 200 uM): 16.5 nM
- apparent KD of MS2 coat protein [4]: 13.9 nM
- apparent KD of MS2 coat protein (input ligand: none): 18.3 nM

Sequence: UGAUCUUGAGUCAGGAUAUGCUGGUUUUUUUUUUAGCAGAAGGGACAUGAGGAUCACCCAUGUUCUCACUUUUU [Magic-12] (puzzle: Brourd's mod of Exclusion 4)
- apparent KD of MS2 coat protein [1]: 16.8 nM

Sequence: UUCUUUACACGAGGAUAUCAUACAUGAGGAUCACCCAUGUGGCUGUGUCUGUUUUUAUGUAUUAUUGAGAAGGCGUUUUUCUUU [JR_ExcNG2_Sub075] (Eterna round: R96, puzzle: Exclusion NG 2)
- apparent KD of MS2 coat protein (input ligand: FMN 200 uM): 105 nM
- apparent KD of MS2 coat protein [4]: 28.3 nM
- apparent KD of MS2 coat protein (input ligand: none): 33 nM

Sequence: GGUAUACAUGAGGAUCACCCAUGUCAGGAUAUGGAAACCUGUGCCGAAAGGCACAGGGCCAGAAGGGACGAUAG [AK-MS2ROC-r4-exclusion1-5.3] (Eterna round: R97, puzzle: Exclusion 1)
- apparent KD of MS2 coat protein (input ligand: FMN 200 uM): 93.7 nM
- apparent KD of MS2 coat protein (input ligand: none): 82.9 nM

Sequence: CUUUUUUCUGUAAGGAUAUAGCCCGCGAGAUGUGGCUAGAAGGUACAUGAGGAUCACCCAUGUGUGUCCACAUU [Eternabot (L1) Solution 55] (Eterna round: R97, puzzle: Brourd's mod of Exclusion 4)
- apparent KD of MS2 coat protein (input ligand: FMN 200 uM): 141 nM
- apparent KD of MS2 coat protein (input ligand: none): 46.8 nM

Sequence: CAGCGGUGAGGAUAUACGUAGGUACAGAUCUGUGUGUUCCUACAUGAGGAUCACCCAUGUAGAAGGCAUGGCUG [LRO-Excl2-11] (puzzle: Exclusion 2)
- apparent KD of MS2 coat protein [1]: 37.1 nM

Sequence: UUUAUAAUUUCAAUCUUCGCCAGCAAACUUACGCUAGCCACAUGAGGAUCACCCAUGUUUUUUGUUCGUUUUAUUCU [Veedcera] (puzzle: Sensor v3, turn-off variant 2)
- apparent KD of MS2 coat protein [2]: 18 nM
- apparent KD of MS2 coat protein [1]: 57.5 nM
- apparent KD of MS2 coat protein [3]: 19.5 nM

Sequence: GUUUUGAGACGGAGAUCCGACAUGAGGAUCACCCAUGUCUCGCAAGCUUUUUGCUCGUCUUAUACUCCUCUGUUCUC [Elimod 45 - Jieux - Sensor, turn-off variant 1] (Eterna round: R97, puzzle: Sensor, turn-off variant 1)
- apparent KD of MS2 coat protein (input ligand: FMN 200 uM): 17.8 nM
- apparent KD of MS2 coat protein (input ligand: none): 17.1 nM

Sequence: UUUACAAGCUAUAGAUCCCACAUGAGGAUCACCCAUGUAGCUGCCAACGGUAGCUUUUUAUGGUUUGCUCGUCUUAU [JL TOV1 3.34] (Eterna round: R97, puzzle: Sensor, turn-off variant 1)
- apparent KD of MS2 coat protein (input ligand: FMN 200 uM): 424 nM
- apparent KD of MS2 coat protein (input ligand: none): 1210 nM

Sequence: CCACGACAUGAGGAUCACCCAUGUGAGGAUAUGGCCUGAAAAGCGUGAGCAGUUUUUAUCAGAAGGCGCGUGGG [salish99_ex1_r4_064_4A's4U's] (Eterna round: R97, puzzle: Exclusion 1)
- apparent KD of MS2 coat protein (input ligand: FMN 200 uM): 63.6 nM
- apparent KD of MS2 coat protein (input ligand: none): 31.5 nM

Sequence: GAGUUACAUGAGGAUCACCCAUGUGAGGAUAUGAGUCAGUCACGGUGACGUGGCUGACUCAGAAGGCACUAUGG [Mat - Exclusion 1 - JL Mod - D43] (Eterna round: R97, puzzle: Exclusion 1)
- apparent KD of MS2 coat protein (input ligand: FMN 200 uM): 52.8 nM
- apparent KD of MS2 coat protein (input ligand: none): 233 nM

Sequence: AAAAUGUGAGGAUAUCAGGUGUGCUAGCGUACUGGUACAUCUGAGAAGGCACAUGAGGAUCACCCAUGUUUCUU [Mat - Exclusion 4 - Mod of JL - D44] (puzzle: Exclusion 4)
- apparent KD of MS2 coat protein [1]: 22.5 nM

Sequence: GCAUCUCAUGUCAGGAUAUGCUGUACCUUGGUACAGCAGAAGGGACAUGAGGAUCACCCAUGUGCCUAAGAUGC [JL-BMX4-4.12] (Eterna round: R97, puzzle: Brourd's mod of Exclusion 4)
- apparent KD of MS2 coat protein (input ligand: FMN 200 uM): 1270 nM
- apparent KD of MS2 coat protein (input ligand: none): 254 nM

Sequence: UUUUACUGAGGAUAUACAUUUUUUUAUUUAUUUAUAAUAUUACAUGAGGAUCACCCAUGUAGAAGGCAGAUUUU [My Design] (puzzle: Exclusion 2)
- apparent KD of MS2 coat protein [1]: 26.7 nM

Sequence: CACCGUUAUGGAGGAUAUCGUACAUGAGGAUCACCCAUGUAAUAAAUGAGAAUUUCGGAUGUAUGCGAGAAGGCCAAAAUCGGC [Ostracism 43 - Jieux - Exclusion NG 2] (Eterna round: R96, puzzle: Exclusion NG 2)
- apparent KD of MS2 coat protein (input ligand: FMN 200 uM): 46.6 nM
- apparent KD of MS2 coat protein [4]: 26.9 nM
- apparent KD of MS2 coat protein (input ligand: none): 43.5 nM

Sequence: CGCGUAUGAGGAUAUGCAUAAAAGGGUGCACUGAGUCUGUGACAUGAGGAUCACCCAUGUAGAAGGCGUGCGCA [Diquzain] (puzzle: Exclusion 2)
- apparent KD of MS2 coat protein [1]: 25.4 nM

Sequence: GUCUUACAUGAGGAUCACCCAUGUGAGGAUAUGGUUUCGCUGGCCGUAGCCAGUGGAACCAGAAGGCGCGUGAU [Mat - Exclusion 1 - JL Mod - D20] (Eterna round: R97, puzzle: Exclusion 1)
- apparent KD of MS2 coat protein (input ligand: FMN 200 uM): 73.1 nM
- apparent KD of MS2 coat protein (input ligand: none): 72.8 nM
